“Also recorded” adds a separate entry of the source.
T1: Apo-3 (Homo sapiens, UniProt Q93038)
T1 construct: made in house
T1 sequence (Q93038 25-199 limits assumed): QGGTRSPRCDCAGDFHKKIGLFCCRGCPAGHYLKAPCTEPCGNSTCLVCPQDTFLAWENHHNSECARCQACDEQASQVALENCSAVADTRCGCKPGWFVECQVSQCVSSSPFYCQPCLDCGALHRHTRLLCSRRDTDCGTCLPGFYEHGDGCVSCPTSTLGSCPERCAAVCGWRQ


Columns and labels:
NF-κB [1] = test: NF-κB activation, electrophoretic mobility shift assay, HeLa cells; type: cell-based, human; details: FIG. 5A
Experimental: In a first assay, HeLa cells (ATCC CCL 22) were treated with His-tagged soluble Apo-3 Ligand (described in Example 3) (10 μg/ml) in duplicate or with vehicle for 30 minutes. His-tagged Apo-2 ligand (see WO 97/25428) or TNF-alpha (Pennica et al., Nature, 312:724-729 (1984)) were assayed for comparison. Nuclear extracts were prepared and 1 μg of nuclear protein was reacted with a ^32P-labelled NF-κB-specific synthetic oligonucleotide probe

[2] = system: HeLa S3 cervical carcinoma cells; test: Apoptosis in HeLa S3 cells (DNA fragmentation analysis); type: cell-based, human; details: HeLa S3 cells pre-treated with CHX, FIG. 9C
Experimental: HeLa S3 cervical carcinoma cells (ATCC CCL 2.2) were similarly pre-treated with CHX and then incubated with soluble Apo-3 Ligand (prepared as described in Example 3 above) alone or together with zVAD-fmk or DEVD-fmk (Research Biochemicals) (100 nM). The treated cells were then subjected to DNA fragmentation analysis.

[3] = system: MCF-7 breast carcinoma cells; test: Apoptosis in MCF-7 breast carcinoma cells (microscopy, Hoechst dye); type: cell-based, human; details: MCF-7 cells pre-treated with CHX 10 μg/ml, ligand 2 μg/ml, 14 hours, FIG. 9A
Experimental: Human MCF-7 breast carcinoma cells (ATCC HTB 22) were pre-treated for 1 hour with cyclohexamide (CHX) (10 μg/ml) and incubated for 14 hours with soluble Apo-3 Ligand (2 μg/ml; prepared as described in Example 3 above) alone or together with zVAD-fmk (Research Biochemicals) (100 nM). The cells were then stained with Hoechst dye and photographed by phase (FIG. 9A, left) and by fluorescence (FIG. 9A, right) microscopy. In FIG. 9A, arrowheads indicate some of the apoptotic cells (left) and their condensed nuclei (right).
In a separate experiment, the MCF-7 cells were pre-treated for 1 hour with buffer or CHX, incubated for an additional 14 hours with the indicated concentrations of soluble Apo-3 Ligand (see FIG. 9B), and apoptotic or live cells were score by microscopy.

Apo-3 = target: T1, Apo-3; test: Co-immunoprecipitation binding assay with Flag-tagged soluble Apo-3; details: ligand and receptor 1 μg/ml, FIG. 8A
Experimental: A binding assay was conducted to determine if Apo-3 Ligand binds Apo-3 receptor. Apo-3 receptor was described by Marsters et al., Curr. Biol., 6:750 (1996). Other investigators have also referred to Apo-3 as DR3 [Chinnayian et al., Science, 274:990 (1996)], Wsl-1 [Kitson et al., Nature, 384:372 (1996)], TRAMP [Bodmer et al., Immunity, 6:79 (1997)], or LARD [Screaton et al., PNAS, 94:4615-4619 (1997)].
(§1) A Flag-epitope tagged soluble Apo-3 was produced (as described for DR5 in Sheridan et al., Science, 277:818 (1997)) and tested in a co-immunoprecipitation assay to examine its ability to associate with a histidine tagged soluble Apo-3 Ligand (see Example 3 above). […] The respective ligands (1 μg/ml) and receptors (1 μg/ml) were incubated for 1 hour at room temperature. The reaction mixtures were subjected to precipitation with anti-Flag antibody conjugated to sepharose beads (Kodak) (FIG. 8A, left) or nickel-sepharose (Qiagen) (FIG. 8A, right) by overnight incubation at 4° C. according to manufacturer's instructions and resolved by gel electrophoresis. The ligands were visualized by Western blot analysis with nickel-conjugated horseradish peroxidase. In FIG. 8A, molecular weight markers (kDa) are indicated on the left.

NF-κB [4] = test: NF-κB activation, electrophoretic mobility shift assay, 293 cells; type: cell-based, human; details: 3 hours, FIG. 5B and 5C
HeLa cells = test: Apoptosis in HeLa cells transfected with full length Apo-3 Ligand (FACS, annexin V binding); type: cell-based, human; details: HeLa cells transfected with plasmid encoding amino acids 1 to 249, CD4-positive cells, FIG. 6
Experimental: A pRK5 plasmid (see EP 307,247) encoding Apo-3 Ligand polypeptide (amino acids 1 to 249 of FIG. 1), or empty pRK5 plasmid, was transiently transfected along with a pRK5 plasmid encoding human CD4 as a marker for transfection into human HeLa cells by electroporation, and the cells were plated in tissue culture dishes. Four hours later, the caspase inhibitor z-VAD-fmk (Research Biochemicals) (200 μM) was added to some of the dishes. Twenty hours later, apoptosis was determined by FACS analysis of cells positive for the CD4 marker by measuring binding of fluorescein isothiocyanate (FITC)-conjugated annexin V (Brand Applications) (see WO 97/25428).

DR5 = target: T2, DR5 (Homo sapiens, UniProt O14763); test: Co-immunoprecipitation binding assay with DR5 ECD; details: ligand and receptor 1 μg/ml, FIG. 8A
T2 construct: the ECD of the Apo-2L receptor, DR5; made in house
Experimental: as §1

[5] = system: Jun N-terminal kinase (JNK/SAPK); test: JNK/SAPK activity in 293 cells transfected with full length Apo-3 Ligand; type: cell-based, human; details: 293 cells transfected, FIG. 7
Experimental: The pRK5 plasmid encoding Apo-3 Ligand polypeptide or empty pRK5 plasmid (see Example 6 above) was transiently transfected into human 293 cells (ATCC CCL 1573) by calcium phosphate precipitation. Four hours later, one set of cells was treated with z-VAD-fmk (Research Biochemicals) (200 μM). Twenty hours later, the cells were harvested and analyzed for activity of Jun N-terminal kinase (JNK; also called stress activated protein kinase or SAPK) using a commercially available JNK/SAPK assay kit (New England Biolabs), and according to the manufacturer's instructions.

MCF-7 cells = test: Apoptosis by soluble Apo-3 Ligand in MCF-7 cells transfected with caspase inhibitors or FADD mutant; type: cell-based, human; details: CHX 1 hour, soluble Apo-3 Ligand 2 μg/ml 14 hours, FIG. 9D
Experimental: MCF-7 cells were transfected by lipofection with empty vector (pRK5; EP 307,247) or with expression plasmid encoding the caspase inhibitors, p35 or CrmA, or a dominant-negative FADD mutant (Tularik, South San Francisco, Calif.). Sixteen hours later, the cells were pre-treated with CHX for 1 hour, and then treated for an additional 14 hours with soluble Apo-3 Ligand (2 μg/ml).

T2 sequence (O14763 56-184 limits assumed): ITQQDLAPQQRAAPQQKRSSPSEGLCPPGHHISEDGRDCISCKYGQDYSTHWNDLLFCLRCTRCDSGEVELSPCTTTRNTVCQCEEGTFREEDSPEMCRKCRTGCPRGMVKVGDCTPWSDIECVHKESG

Row | Molecule | NF-κB activation (NF-κB [1]; 10 μg/ml, 30 minutes) | level of NF-κB activation compared with Apo-2 ligand (NF-κB [1]) | level of NF-κB activation compared with TNF-alpha (NF-κB [1]) | apoptosis (internucleosomal DNA fragmentation) [2] | apoptosis (morphological changes and chromatin condensation) [3] | binding to Apo-3 (Apo-3) | binding to Apo-3 (Apo-3; listed as Apo-3L) | NF-κB activation (NF-κB [4]) | level of apoptosis compared with pRK5 (control) (HeLa cells) | binding to DR5 (DR5) | level of JNK/SAPK activity compared with pRK5 control [5] | effect of transfection on induction of apoptosis by Apo-3 Ligand (MCF-7 cells)
1 | soluble Apo-3 Ligand (protein) MGHHHHHHHHHHSSGHIDDDDKHMRASLSAQEPAQEELVAEEDQDPSELNPQTEESQDPAPFLNRLVRPRRSAPKGRKTRARRAIAAHYEVHPRPGQDGAQAGVDGTVSGWEEARINSSSPLRYNRQIGEFIVTRAGLYYLYCQVHFDEGKAVYLKLDLLVDGVLALRCLEEFSATAASSLGPQLRLCQVSGLLALRPGSSLRIRTLPWAHLKAAPFLTYFGLFQVH | induced significant NF-κB activation | comparable | weaker | induced marked apoptosis | induced marked apoptosis | – | – | – | – | – | – | –
2 | Apo-3 Ligand: Novel human TNF family polypeptide of 249 amino acids encoded by clone DNA30879-1152 (ATCC 209358) (protein) MGHHHHHHHHHHSSGHIDDDDKHMRASLSAQEPAQEELVAEEDQDPSELNPQTEESQDPAPFLNRLVRPRRSAPKGRKTRARRAIAAHYEVHPRPGQDGAQAGVDGTVSGWEEARINSSSPLRYNRQIGEFIVTRAGLYYLYCQVHFDEGKAVYLKLDLLVDGVLALRCLEEFSATAASSLGPQLRLCQVSGLLALRPGSSLRIRTLPWAHLKAAPFLTYFGLFQVH | – | – | – | – | induced apoptosis | bound to Apo-3 | specifically binds to Apo-3 | NF-κB activation | about a doubling of the level of apoptosis | not to DR5 | detectable increase; also recorded: increased JNK/SAPK activity | –
3 | p35: virus-derived caspase inhibitor, expressed from a transfected plasmid (protein, UniProt P08160 1-299, looked up) Early 35 kDa protein: MCVIFPVEIDVSQTIIRDCQVDKQTRELVYINKIMNTQLTKPVLMMFNISGPIRSVTRKNNNLRDRIKSKVDEQFDQLERDYSDQMDGFHDSIKYFKDEHYSVSCQNGSVLKSKFAKILKSHDYTDKKSIEAYEKYCLPKLVDERNDYYVAVCVLKPGFENGSNQVLSFEYNPIGNKVIVPFAHEINDTGLYEYDVVAYVDSVQFDGEQFEEFVQSLILPSSFKNSEKVLYYNEASKNKSMIYKALEFTTESSWGKSEKYNWKIFCNGFIYDKKSKVLYVKLHNVTSALNKNVILNTIK | – | – | – | – | – | – | – | – | – | – | – | blocked induction of apoptosis
